“Also recorded” adds a separate entry of the source.
How the values were obtained:
[1] = Mouse splenic enlargement; settings: in vivo
[2] = system: ARPE-19 retinal pigmented epithelial cells; test: Retinal cell toxicity assay (MTS); type: cell-based, human; settings: 72 h, up to 594.3 nM (100 μg/ml)
Description: ARPE-19 cells were seeded onto 96-well plates at a density of 4000 cells per well, and then treated in triplicate with various concentrations of 17-AAG or anti-HSP90α antibody HH01 for 72 h. The 3-(4,5-dimethylthiazol-2-yl)-5-(3-carboxymethoxyphenyl)-2-(4-sulfophenyl)-2H-tetrazolium (MTS; Sigma-Aldrich) assay was employed and OD490 was measured to evaluate cell viability upon each treatment.

PANC-1 cells [3] = test: Transwell invasion assay, rHSP90α-induced PANC-1 invasion; type: cell-based, human; settings: 15 μg/ml rHSP90α plus 10 μg/ml antibody
Description: In a 37° C. and 5% CO2 humidified incubator, cancer cells were subjected to serum starvation in 0.5% FBS-containing medium for 16 h, and then added […] After another 24 h, the treated cells were harvested as aliquots (1×10^5 cells per aliquot) in 0.5% FBS-containing culture medium, and then each aliquot was seeded into a top chamber of Transwell inserts pre-coated with 5-fold diluted Matrigel (BD Biosciences). Cells were allowed 16 h to invade through the Matrigel toward the bottom chambers containing culture medium plus 10% FBS. The filters of the Transwell inserts were then fixed and stained with Giemsa. Invasive cells on the lower side of filters were photographed using the Axiovert S100/AxioCam HR microscope system (Carl Zeiss, Oberkochen, Germany) and further quantified by the Image-Pro Plus software (Media Cybernetics, Inc., Silver Spring, MD, USA).

[4] = system: Panc 02 plus rHSP90α-treated BMDM cell grafts; test: Therapeutic efficacy in M2-macrophage-exacerbated mouse PDAC model; type: in vivo
Description: Mouse experiments were performed with the permission of the Institutional Animal Care and Use Committee of National Health Research Institutes (NHRI-IACUC-106031-A, 109022-M2-S02, and 109196-A). To establish a desmoplastic tumor transplant model, C57BL/6 mice at 12 weeks of age were subcutaneously inoculated with a mix of Panc 02 cells and EndoMT-derived CAFs (i.e. OPN-treated 3B-11 cells). See Fan C S, Chen L L, Hsu T A, et al. Endothelial-mesenchymal transition harnesses HSP90α-secreting M2-macrophages to exacerbate pancreatic ductal adenocarcinoma. J Hematol Oncol 2019;12:138; and Chua K V, Fan C S, Chen L L, Chen C C, Hsieh S C, Huang T S. Octyl gallate induces pancreatic ductal adenocarcinoma cell apoptosis and suppresses endothelial-mesenchymal transition-promoted M2-macrophages, HSP90α secretion, and tumor growth. Cells 2020;9(1):91. Sizes of developing tumors were superficially measured with a Vernier caliper, and tumor volumes were calculated with the formula ½×length×width^2. Real tumors were weighed when mice were sacrificed. To establish a desmoplastic tumor transplant model in humanized mice, NOD-SCID IL2R^null (ASID) mice transplanted with human hematopoietic stem cells (hHSC) were subcutaneously inoculated with a mix of PANC-1 cells and OPN-treated HUVECs. The employed hHSC-transplanted ASID mice were produced from the National Laboratory Animal Center (Taipei, Taiwan) and all contained human CD45^+ cell levels more than 38% of total lymphocytes. To establish an M2-macrophage-exacerbated mouse PDAC model, C57BL/6 mice were subcutaneously inoculated with a mix of Panc 02 cells and rHSP90α-treated BMDMs. Additionally, LSL-KrasG12D/Pdx1-Cre transgenic mice were adopted as a spontaneously PDAC-developing mouse model to evaluate the therapeutic efficacy of HH01 antibody. LSL-KrasG12D and Pdx1-Cre breeder mice were obtained from the Mouse Models of Human Cancers Consortium Repository of the National Cancer Institute (Frederick, Maryland, USA). LSL-KrasG12D mice were crossed with Pdx1-Cre mice to generate LSL-KrasG12D/Pdx1-Cre mice.
For assaying the HSP90α-binding activities of the prepared antibodies, 96-well plates were coated with 12.5 ng/ml of rHSP90α in the capture buffer (BioLegend, San Diego, CA, USA) by overnight incubation at 4° C. The coated plates were washed twice with PBST and then blocked with PBST plus 3% bovine serum albumin (BSA). The prepared antibodies were applied and incubated 2 h at room temperature. After three washes with PBST, horseradish peroxidase-conjugated secondary antibody was added and incubated at 37° C. for another 1 h. After three washes, 0.3 mg/ml of 3,3′,5,5′-tetramethylbenzidine in 0.015% H2O2 was added into each well and incubated in the dark at room temperature for 10 min. The reactions were stopped by the addition of 0.5 M H2SO4, and OD450 values were measured by an Infinite M200 microplate reader (TECAN, Männedorf, Switzerland). Additionally, the immunoglobulin (IgG) isotype characterization of anti-HSP90α antibodies was performed by using the Mouse Ig Isotyping ELISA Ready-Set-Go!™ Kit (eBioscience™, Thermo Fisher Scientific, Waltham, MA, USA). The ELISA protocol was also used to assay the secreted HSP90α levels of mouse serum samples as described previously. See Chen J S, Hsu Y M, Chen C C, Chen L L, Lee C C, Huang T S. Secreted heat shock protein 90α induces colorectal cancer cell invasion through CD91/LRP-1 and NF-κB-mediated integrin αV expression. J Biol Chem 2010;285(33):25458-66.
Mouse tissue sections with a 4-μm thickness were deparaffinized by xylene and rehydrated in graded ethanol dilutions. Antigen retrieval was performed by heating the sections for 15 min in 10 mM of citrate buffer, pH 6.0, under high pressure. The endogenous peroxidase activity was blocked by 0.3% H2O2. Before staining, the sections were blocked 30 min with PBS plus 3% BSA at room temperature in a humidified chamber. […]

[5] = Dynamic Light Scattering assay; type: physicochemical
PANC-1 cells [6] = test: Cell spheroid-forming assay, rHSP90α-induced PANC-1 spheroids; type: cell-based, human; settings: 15 μg/ml rHSP90α plus 10 μg/ml antibody
Description: One thousand cancer cells were seeded onto each well of 24-well plates pre-coated with a 4-mm thick layer of 0.5% agarose. After incubation 24 h with serum-free medium at 37° C. plus a 5% CO2 humidified atmosphere, cells were added with PBS or 15 μg/ml of rHSP90α in the absence or presence of 10 μg/ml of control IgG or the tested anti-HSP90α antibody. The incubation was kept for 10-14 days with supplements of some fresh serum-free medium every 3 days. Finally, the cell spheroids characterized by tight, non-adherent, and >100 μm in diameter were photographed and counted under an Olympus IX 71 inverted microscope (Center Valley, PA, USA). The spheroid formation % was calculated by the formula: (number of cell spheroids/1000)×100%.

[7] = 5 mg/kg from Day-27, second dose after 7 days
[8] = immunohistofluorescent staining of tumor tissues

B1: HH01: humanized anti-HSP90α IgG1 antibody, mutant of Clone-2-chimera; VH SEQ ID NO: 12, VL SEQ ID NO: 17 (antibody, V domains shown)
VH: EVQLVESGGGLVQPGGSLRLSCAASGFTFKTYAMNWVRQAPGQGLEWVARIRSKSRNYATYYADSVKDRFTISRDDSKNQFYLQMNNLRTEDTAVYYCVVGGSGFDYWGQGTTLTVSS
VL: DVVMTQTPLSLPVSLGDQASISCRSSQSIVHSNGNTYLEWYLQKPGQSPQLLIYKVSNRFSGVPDRFSGSGSGTDFTLTISSVEAEDLGVYYCFQGSHVPWTFGGGTKLEIK
modifications: Heavy chain variable region; Light chain variable region
In the case of B1, the mouse splenic enlargement [1] is reported as “will not cause mouse splenic enlargement”, the “cytotoxicity in ARPE-19 cells” value [2] is reported as “did not cause any obvious cytotoxicity; also recorded: not cytotoxic” and the “suppression of rHSP90α-induced invasiveness of PANC-1 cells” value (PANC-1 cells [3]) is reported as “superior to Clone-2-hB, Clone-2-hC, and their parental Clone-2”. The “elevation of serum HSP90α levels” value [4, 7] was “significantly suppressed”, the tumor volume [4, 7] was “drastic tumor shrinkage upon HH01 treatment was observed immediately after 3 days” and the “tumors on Day-42” value [4, 7] was “shrank significantly”. For the same molecule, the “CD4^+TNF-α^+ (effective T) cells” value [4, 8] was “both increased”, the “CD8^+TNF-α^+ (cytotoxic T) cells” value [4, 8] was “both increased” and the “F4/80^+Arginase1^+ (M2) cells” value [4, 8] was “decrease”. For the same molecule, the “F4/80^+iNOS^+ (M1) cells” value [4, 8] was “increase”, the “CD4^+ and CD8^+ cell levels in tumor (immunohistochemistry)” value ([4]; tumor samples) was “effectively restored” and the “M2-macrophages in tumor (CD163, CD204 immunohistochemistry)” value ([4]; tumor samples) was “M2-macrophage reduction”. For the same molecule, the aggregate formation [5] was “did not easily form aggregate; also recorded: not easy to form aggregate”, the “size of average diameter” value ([5]; Dynamic Light Scattering) was 19.33 nm and the size range ([5]; Dynamic Light Scattering) was 10-50 nm. For the same molecule, the “suppression of rHSP90α-induced spheroid formation of PANC-1 cells” value (PANC-1 cells [6]) was “most outstanding efficacy”.

From patent publication US20250333486A1, “Anti-HSP90 alpha antibody and uses thereof” (NATIONAL HEALTH RESEARCH INSTITUTES, priority 2021, published 2025)
